# Assay results from PMC2671563 (PLoS Biology, 2009).
# B1: human S100A9 (natural protein, UniProt P06702 1-114, looked up)
# chain: MTCKMSQLERNIETIINTFHQYSVKLGHPDTLNQGEFKELVRKDLQNFLKKENKNEKVIEHIMEDLDTNADKQLSFEEFIMLMARLTWASHEKMHEGDEGPGHHHKPGLGEGTP
# notes: S100A9, human; called homodimeric; also called hS100A9; homodimeric S100A9; source: either produced recombinantly in Escherichia coli or purified from granulocytes
# B2: mouse S100A9 (natural protein, UniProt P31725 1-113, looked up)
# chain: MANKAPSQMERSITTIIDTFHQYSRKEGHPDTLSKKEFRQMVEAQLATFMKKEKRNEALINDIMEDLDTNQDNQLSFEECMMLMAKLIFACHEKLHENNPRGHGHSHGKGCGK
# notes: S100A9, mouse; called homodimeric; also called mS100A9; murine S100A9; source: either produced recombinantly in Escherichia coli or purified from granulocytes
# B3: mouse S100A8/A9 heterodimer (complex)
# chain 1: MPSELEKALSNLIDVYHNYSNIQGNHHALYKNDFKKMVTTECPQFVQNINIENLFRELDINSDNAINFEEFLAMVIKVGVASHKDSHKE
# chain 2: B2 chain
# notes: S100A8, mouse; S100A9, mouse; also called mS100A8/A9; murine S100A8/A9; source: either produced recombinantly in Escherichia coli or purified from granulocytes
# B4: human S100A8/A9 heterodimer (complex)
# chain 1: MLTELEKALNSIIDVYHKYSLIKGNFHAVYRDDLKKLLETECPQYIRKKGADVWFKELDINTDGAVNFQEFLILVIKMGVAAHKKSHEESHKE
# chain 2: B1 chain
# notes: S100A8, human; S100A9, human; also called hS100A8/9; S100A8/A9 complex; source: either produced recombinantly in Escherichia coli or purified from granulocytes
# Legend:
# [1] = molecular target: mouse S100A9 (mouse) (UniProt P31725); assay: SPR; competition: 100 nM mouse S100A9 injected over amine-coupled mLPS-Trap with soluble mLPS-Trap (100, 200, 400 nM) as competitor
# [2] = molecular target: T1, human S100A9 binding to human TLR4/MD2 (Homo sapiens, UniProt P06702); assay: SPR: inhibition of human S100A9 binding to immobilised human TLR4/MD2; conditions: for inhibition of hS100A9 binding to immobilised hTLR4/MD2: 100 nM hS100A9
# T1 construct: purchased R&D Systems (TLR4/MD-2 complex); S100A9 made in house
# T1 sequence (P06702 1-114): B1 chain
# Method: (§1) The SPR analysis was carried out with the Biacore 3000 system (GE Healthcare). Sensor chips, amine coupling kit, immobilization and running buffers, and regeneration solutions were obtained from GE Healthcare. Working solutions of all reagents used for Biacore analysis were prepared in 0.01 M Hepes, 0.15 M NaCl (pH 7.4) containing 0.005% v/v Surfactant P-20 (HBS-P; GE Healthcare) by buffer exchange on Fast Protein Desalting Micro-Spin Columns from Pierce. ABR-215757 was immobilised onto a CM5 chip through an amino-linker (ABR-224649). […] Activity of ligands after immobilisation was tested by injecting specific antibodies (unpublished data). In some experiments, S100A9 was immobilized either by random amine coupling or with a known orientation (i.e., by sulhydryl group conjugation to the only cysteine in S100A9 at position 3).
# (§2) Binding to the various surfaces was performed by injecting the analyte at a flow rate of 30 μl/min in a physiological buffer (HBS-P) containing 1 mM Ca^2+ and 10 μM Zn^2+ as proposed for S100A8/9 by Robinson et al.. A typical analysis cycle consists of: (1) pumping running buffer for 1 min to obtain a stable baseline; (2) injection of sample for an appropriate period of time (association); (3) pumping running buffer for 2.5 min (dissociation); (4) injection of a short pulse (30 s) of 15 μl 10 mM glycine-HCl (pH 2.0) (regeneration); and (5) pumping running buffer for 2 min (stabilisation after regeneration) at a flow rate of 30 μl/min. […] In one experiment, S100A9 was injected into a buffer with a fixed Ca^2+ concentration (1 mM) and Zn^2+ in the range 0–50 μM. In a second experiment, Ca^2+ was varied from 0–2 mM at a fixed Zn^2+ concentration (10 μM). In subsequent analyses, regeneration was carried out under more mild conditions, i.e., by injecting 30 μl of HBS-P containing 3 mM EDTA (HBS-EP; GE Healthcare) for 60 s, to prolong the lifespan of the chip.
# (§3) Compounds were also injected over the immobilised surfaces in the absence of S100A9 to exclude, or make possible correction for, any direct binding of compound to the surface.
# (§4) Evaluation was carried out using BIAevaluation Software version 3.2 (GE Healthcare). The response at steady-state was obtained by fit of sensorgrams to standard binding models, where appropriate, or calculated as responses at late association or early dissociation phase using the Steady state affinity function in BIAevaluation. Affinity was determined from kinetic analysis (on- and off-rates) or as the apparent affinity after plotting responses versus concentration of analyte in a saturation curve. In the inhibition assay format, the competitor concentration yielding 50% inhibition (IC50) was calculated by fitting data to a one-site competition model in GraphPad Prism.
# [3] = molecular target: T2, hS100A9 (Homo sapiens, UniProt P06702); assay: SPR: analytes injected over immobilised hS100A9; assay type: binding
# T2 construct: made in house; host or cells: Escherichia coli (or purified from granulocytes)
# T2 sequence (P06702 1-114): B1 chain
# Method: as §1
# (B) Left: 100 nM TLR4/MD2 or MD2 injected over amino-coupled hS100A9. […] Fab 43/8 was injected at 50–200 nM to verify activity of immobilized hS100A9 (right). […] (482 KB PDF) Click here for additional data file.
# [4] = molecular target: T3, human S100A9 (Homo sapiens, UniProt P06702); assay: SPR: human S100A9 binding to immobilised ABR-224649 (Q compound), direct binding and displacement; conditions: injected together with S100A9
# T3 construct: made in house; host or cells: Escherichia coli (or purified from granulocytes)
# T3 sequence (P06702 1-114): B1 chain
# Method: as §1, §2, §3, §4
# [5] = molecular target: T4, human S100A9 binding to human RAGE (Homo sapiens, UniProt P06702); assay: SPR: inhibition of human S100A9 binding to immobilised human RAGE; conditions: injected together with S100A9
# T4 construct: purchased R&D Systems (RAGE/Fc); S100A9 made in house
# T4 sequence (P06702 1-114): B1 chain
# Method: as §1, §2, §3, §4
# [6] = molecular target: T5, human TLR4/MD-2 complex (human, UniProt O00206 24-631; Q9Y6Y9 19-160); assay: SPR; 100 nM TLR4/MD2 or MD2 injected over amine-coupled hS100A9 (~5,000 RU); fit to a 1:1 model with mass transfer; conditions: both partners purified
# T5 construct: Toll-like receptor 4, human; MD-2, human; Soluble recombinant complex; also called hTLR4/MD-2; hTLR4/MD2; source: bought: R&D Systems (carrier-free recombinant)
# T5 sequence (O00206 24-631, chain 1 of 2): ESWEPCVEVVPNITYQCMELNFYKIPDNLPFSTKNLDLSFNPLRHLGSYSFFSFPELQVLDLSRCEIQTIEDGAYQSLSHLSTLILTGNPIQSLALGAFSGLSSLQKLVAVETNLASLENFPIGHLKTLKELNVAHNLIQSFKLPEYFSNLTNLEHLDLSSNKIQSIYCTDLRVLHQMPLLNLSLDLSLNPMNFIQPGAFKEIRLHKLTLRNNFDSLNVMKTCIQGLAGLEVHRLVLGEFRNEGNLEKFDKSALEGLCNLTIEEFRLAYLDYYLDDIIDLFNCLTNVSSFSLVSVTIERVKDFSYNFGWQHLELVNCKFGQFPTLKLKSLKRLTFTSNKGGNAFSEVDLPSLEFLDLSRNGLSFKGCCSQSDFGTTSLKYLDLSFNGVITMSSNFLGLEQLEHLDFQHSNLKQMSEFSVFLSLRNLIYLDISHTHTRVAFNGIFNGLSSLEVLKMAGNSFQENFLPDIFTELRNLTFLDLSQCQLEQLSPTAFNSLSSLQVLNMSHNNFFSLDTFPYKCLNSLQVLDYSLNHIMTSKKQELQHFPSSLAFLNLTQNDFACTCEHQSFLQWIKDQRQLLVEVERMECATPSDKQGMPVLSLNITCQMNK
# T5 sequence (Q9Y6Y9 19-160, chain 2 of 2): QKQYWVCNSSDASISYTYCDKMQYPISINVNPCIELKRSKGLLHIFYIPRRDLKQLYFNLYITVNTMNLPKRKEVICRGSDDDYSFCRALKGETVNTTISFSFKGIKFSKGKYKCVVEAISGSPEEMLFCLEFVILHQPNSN
# [7] = molecular target: T6, recombinant human RAGE/Fc (human, UniProt Q15109 23-342); assay: SPR; S100 proteins injected (100 nM, or a range of concentrations; 30 ul/min) over human RAGE/Fc immobilised by amine coupling (~3,000 RU); HBS-P pH 7.4 with 1 mM Ca2+ and 10 uM Zn2+; fit to a 1:1 model with mass transfer; half-maximal binding from responses at late association (apparent); conditions: both partners purified
# T6 construct: RAGE (receptor for advanced glycation end products), human; human IgG1 Fc was used as the control for the Fc part; also called hRAGE; rhRAGE/Fc; source: bought: R&D Systems (carrier-free recombinant)
# T6 sequence (Q15109 23-342): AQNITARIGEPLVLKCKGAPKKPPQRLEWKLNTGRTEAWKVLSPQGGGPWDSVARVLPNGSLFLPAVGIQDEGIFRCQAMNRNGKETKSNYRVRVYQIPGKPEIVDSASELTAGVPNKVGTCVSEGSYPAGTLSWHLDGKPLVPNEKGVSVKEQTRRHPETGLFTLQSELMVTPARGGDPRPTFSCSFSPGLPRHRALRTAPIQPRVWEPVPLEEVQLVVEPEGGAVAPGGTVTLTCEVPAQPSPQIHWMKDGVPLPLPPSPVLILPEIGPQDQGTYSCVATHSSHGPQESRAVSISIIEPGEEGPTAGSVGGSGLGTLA
# [8] = molecular target: T5, human TLR4/MD-2 complex; assay: SPR; S100 proteins injected (100 nM, or a range of concentrations; 30 ul/min) over human TLR4/MD2 immobilised by amine coupling (~3,000 RU); HBS-P pH 7.4 with 1 mM Ca2+ and 10 uM Zn2+; fit to a 1:1 model with mass transfer; half-maximal binding from responses at late association (apparent); conditions: both partners purified
# [9] = molecular target: T7, mouse RAGE/Fc (mouse, UniProt Q62151-1 23-340); assay: SPR; 50 and 100 nM mouse S100A9, or 100 nM mouse S100A8/A9, injected (3 min at 30 ul/min) over mouse RAGE/Fc or mLPS-Trap coupled to the sensor chip; conditions: both partners purified
# T7 construct: RAGE, mouse; also called mRAGE; mRAGE/hFc; source: bought: R&D Systems (carrier-free recombinant)
# T7 sequence (Q62151 23-340): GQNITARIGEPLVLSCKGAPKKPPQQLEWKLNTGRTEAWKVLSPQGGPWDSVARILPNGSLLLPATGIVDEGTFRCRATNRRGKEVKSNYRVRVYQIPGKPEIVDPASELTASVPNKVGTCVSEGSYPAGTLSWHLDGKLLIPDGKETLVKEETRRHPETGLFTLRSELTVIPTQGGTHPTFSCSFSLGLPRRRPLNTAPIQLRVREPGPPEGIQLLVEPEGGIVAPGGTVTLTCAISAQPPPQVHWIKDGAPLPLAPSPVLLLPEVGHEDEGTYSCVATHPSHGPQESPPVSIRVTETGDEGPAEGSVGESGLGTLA
molecule,measurement,setting,value
mouse TLR4/MD2 fusion protein (mLPS-Trap),percent inhibition of mS100A9 binding to immobilised mLPS-Trap at 100 nM competitor,[1],22%
same,percent inhibition of mS100A9 binding to immobilised mLPS-Trap at 200 nM competitor,[1],51%
same,percent inhibition of mS100A9 binding to immobilised mLPS-Trap at 400 nM competitor,[1],70%
rhMD-2: recombinant human MD-2,displacement of S100A9 binding to immobilised hTLR4/MD2,"[2]; 200 and 400 nM, unpublished data",No displacement
same,binding to immobilised S100A9,[3],did not
sTLR4/MD2: recombinant human TLR4/MD-2 complex in solution,inhibition of S100A9 interaction with immobilised Q compound by competitor in solution,[4],inhibit
same,inhibition of S100A9 interaction with immobilised RAGE by competitor in solution,[5],inhibit
same,inhibition of hS100A9 binding to immobilised hTLR4/MD2,[2]; competitor 200 nM,55%
same,inhibition of hS100A9 binding to immobilised hTLR4/MD2,[2]; competitor 400 nM,78%
same,blocking of S100A9 interaction with immobilised TLR4 by competitor in solution,[2]; injected together with S100A9,efficiently block
same,Kd,"[3]; 100 nM analyte, 1:1 model with mass transfer, read-out: KD, binding to immobilised hS100A9",9.2 nM
B1,Kd,[6],9.2 nM
same,Kd,[7],38 nM
same,Kd,[8],2.1 nM
B2,binding result,[9],binds
B3,binding result,[9],binds
B4,Kd,[7],9.4 nM
same,Kd,[8],3.8 nM
